# Reference: patent publication US20190233542A1 (WUXI BIOLOGICS IRELAND, published 2019)
# Legend:
# [1] = target: T1, human PCSK9 (Proprotein Convertase Subtilisin/Kexin type 9) (human, UniProt Q8NBP7 31-692, biotin label in the ELISA formats (site not stated)); test: binding ELISA on human PCSK9
# T1 construct: 85 kDa was used as the analyte's mass in SPR; also called PCSK9 (WT); wild type PCSK9
# rhesus PCSK9 = target: T2, rhesus PCSK9 (rhesus, UniProt A8T666 31-692, limits assumed); test: SPR, Biacore T200, antibody captured, monkey PCSK9 as analyte
# T2 construct: A rhesus PCSK9-His from Sino Biological is named only for the ELISA of Section 4.3.2; also called monkey PCSK9; rhesus PCSK9-His
# Method: (§1) Antibody binding affinity to human and rhesus PCSK9 was detected by SPR assay using Biacore T200. Each antibody was captured on a Protein A or or anti-human IgG Fc antibody immobilized CM5 sensor chip (GE). Human or rhesus PCSK9 at different concentrations were injected over the sensor chip at a flow rate of 30 μL/min for an association phase of 180 s, followed by 1200 s dissociation. The chip was regenerated by 2 M MgCl₂ after each binding cycle.
# (§2) The sensorgrams for blank surface and buffer channel were subtracted from the test sensorgrams. The experimental data was fitted by 1:1 model using Langmiur analysis. Molecular weight of 85 KDa was used to calculate the molar concentration of analyte.
# (§3) Kinetic affinities of antibody leads were measured by SPR assay.
# [2] = target: T1, human PCSK9 (Proprotein Convertase …); test: SPR, Biacore T200, antibody captured, PCSK9 as analyte
# Method: as §1, §2, §3
# human PCSK9-mFc-biotin [3] = target: T3, human PCSK9-mFc-biotin (human, UniProt Q8NBP7 31-692, biotin label (site not stated)); test: competitive ELISA, blocking of PCSK9 binding to LDL-R
# T3 construct: not shown: murine Fc (mFc) fused at the C-terminus
# [4] = target: T1, human PCSK9 (Proprotein Convertase …); test: cell-based or functional assay
# [5] = target: mutant human PCSK9 (D374Y) (human, UniProt Q8NBP7 31-692); test: cell-based or functional assay
# [6] = target: T1, human PCSK9 (Proprotein Convertase …); test: cell-based or functional assay; remark: listed apart in the source
# [7] = target: T1, human PCSK9 (Proprotein Convertase …); test: SPR
# [8] = target: T1, human PCSK9 (Proprotein Convertase …); test: SPR; remark: listed apart in the source
# human PCSK9-mFc-biotin [9] = target: T3, human PCSK9-mFc-biotin; test: competitive ELISA, blocking of PCSK9-mFc-biotin binding to coated LDL-R
# Method: Blocking assay by ELISA: Plates (Nunc) were coated with LDL-R overnight at 4° C. Hybridoma supernatants were mixed with 250 ng/ml PCSK9-mFc-biotin and incubated at 4° C. overnight. After blocking and washing, the mixture were added to the plates and incubated for 1 h. The plates were then washed and subsequently incubated with streptavidin- HRP. After washing, TMB substrate was added and the interaction was stopped by 2M HCl. The absorbance at 450 nm was read using a microplate reader (Molecular Device).
# The activities of reference antibodies 12H11.1.uIgG4K and 24B9.1.uIgG4L to blocking the binding of PCSK9 to LDLR were evaluated by competitive ELISA (FIG. 30) according to the methods described in Section 2.4 Hybridoma screening of EXAMPLE 2.
# [10] = target: T1, human PCSK9 (Proprotein Convertase …); test: cell-based or functional assay; remark: listed apart in the source
# [11] = target: T1, human PCSK9 (Proprotein Convertase …); test: ELISA on biotin-labeled PCSK9 captured on streptavidin, antibody diluted from human serum after 0 to 14 days at 37 C
# [12] = target: T1, human PCSK9 (Proprotein Convertase …); test: SPR, Biacore T200, antibody captured, PCSK9 as analyte; remark: listed apart in the source
# Method: as §1, §2
# [13] = target: T1, human PCSK9 (Proprotein Convertase …); test: ELISA on streptavidin-captured PCSK9-biotin
# Method: Binding assay by ELISA: Plates (Nunc) were coated with Streptavidin at 1 μg/ml overnight at 4° C. After blocking and washing, 250 ng/ml PCSK9-biotin was added and incubated for 1 h. Then hybridoma supernatants were transferred to the plates and incubate at room temperature for 1 h. The plates were then washed and subsequently incubated with secondary antibody goat anti rat IgG1 HRP (Bethyl) and goat anti rat IgG2b HRP (Bethyl) for 45 min. After washing, TMB substrate was added and the interaction was stopped by 2M HCl. The absorbance at 450 nm was read using a microplate reader (Molecular Device).
# The activities of reference antibodies 12H11.1.uIgG4K and 24B9.1.uIgG4L binding to human PCSK9 were confirmed by ELISA (FIG. 29), according to the method described in Section 2.4 Hybridoma screening of EXAMPLE 2.
Binder,EC50 [1] [nM],Kd (rhesus PCSK9) [nM],koff (rhesus PCSK9) [s⁻¹],kon (rhesus PCSK9) [M⁻¹ s⁻¹],Kd [2] [nM],koff [2] [s⁻¹],kon [2] [M⁻¹ s⁻¹],IC50 (human PCSK9-mFc-biotin [3]) [nM],"IC50, LDL-uptake assay in HepG2 [4] [nM]","IC50 of LDL-uptake restoration, HepG2 cells, PCSK9 (D374Y) [5] [nM]","IC50 of LDL-uptake restoration, Huh-7 cells, PCSK9 (D374Y) [5] [nM]","IC50 of LDL-uptake restoration, HepG2 cells, PCSK9 (WT) [6] [nM]","IC50 of LDL-uptake restoration, Huh-7 cells, PCSK9 (WT) [6] [nM]",further results
"19.3.8-uAb1-IgG4L (antibody, V domains shown, human IgG4 constant region, lambda light chain) VH: QVQLVQSGAEVKKPGASVKVSCKASGYTFTGYYINWVRQAPGQGLEWMGRINPNSGGTNYAQKFQGRVTMTRDTSINTAYMELSRLRSDDTAVYFCASWEGTVTTWDFYYYYGMDVWGQGTTVTVSS VL: QSALTQPASVSGSPGQSITISCTGTSSDVDTYNYVSWYQHHPGKAPKLIIFDVSNRPSGVSNRFSGSKSGNTASLTISGLQAEDEADYYCSSYTSSSTLVVFGGGTKLTVL",0.13,7.16,0.00441,616000,17.5,0.000271,15400,2,115,–,–,–,–,–
"17.72.3-uAb2-IgG4K (antibody, V domains shown, human IgG4 constant region, kappa light chain) VH: QVQLQESGPGLVKPSGTLSLTCAVSGGSIRSYNWWSWVRQPPGEGLEWIGEIHHSGTTNYNPSLKSRVTISVDKSKNQFSLKLSSVTAADTAVYYCARDYSGSYFDYWGQGTLVTVSS VL: EVVLTQSPATLSLSPGERATLSCRTSQSLSSYVAWSQQKPGQAPRLLIYDASKRATGVPARFSGSGSGTDFTLTISNLEPEDFAVYYCHQRGNWMSSFGQGTKLEIK",0.036,20.5,0.00226,110000,3.42,4.68e-05,13700,1.67,106,–,–,–,–,–
"40409 (hIgG2) (antibody, V domains shown) VH: QLNLQQSGPGLVNPSQTLSLTCAISGGSVSSNSAAWNWIRQSPSRGLEWLGRIYSRSKWYHDYAVSVKGRITINPDTSKNQFFLQLNSVTPEDTAVYYCARDWETIIWGDDGPNYYNYGLDVWGQGTTVTVSS VL: DIQMTQSPSSLSASVGDRVTITCRASQGIRNDLGWYQQKPGKAPKRLIYGASSLQSGVPSRFSGSGSGTEFTLTISSLQPEDFATYYCLQHNNYLWTFGQGTKVEIK",–,–,–,–,–,–,–,–,–,2.3,2.7,38.3,63.7,–
"40409 (hIgG4) (antibody, V domains shown, human IgG4 constant region) VH: QLNLQQSGPGLVNPSQTLSLTCAISGGSVSSNSAAWNWIRQSPSRGLEWLGRIYSRSKWYHDYAVSVKGRITINPDTSKNQFFLQLNSVTPEDTAVYYCARDWETIIWGDDGPNYYNYGLDVWGQGTTVTVSS VL: DIQMTQSPSSLSASVGDRVTITCRASQGIRNDLGWYQQKPGKAPKRLIYGASSLQSGVPSRFSGSGSGTEFTLTISSLQPEDFATYYCLQHNNYLWTFGQGTKVEIK",0.024,0.413,0.000939,2.27e+06,0.0523,9.05e-05,1.73e+06,1.75,–,–,–,–,–,Kd [7]: 0.0523 nM; koff [7]: 9.05e-05 s⁻¹; kon [7]: 1.73e+06 M⁻¹ s⁻¹; fold further affinity improvement (over B4G2) [8]: 2 fold; fold higher affinity compared to BMK.115 [8]: 2 fold
"15.14.2-uAb-IgG4L (antibody, V domains shown, human IgG4 constant region, lambda light chain) VH: EVQMLESGGGLVQPGGSLRLSCAVSGFTFSRFAMSWVRQAPGKGLDWVSSISDNAGRTYFADSVKGRFTISRDNSKNTLYLQMNSLRADDTAVYYCAKLSNWGPYGMDVWGQGTTVTVSS VL: QSALTQPPSASGSPGQSVTISCTGTSSDVGYYNYVSWYQQHPGEAPKLMIYEVNKRPSGVPDRFSGSKSGSTASLTVSGLQAVDEADYYCSSYAGSKNFVVFGGGTKLTVL",0.031,0.687,0.00031,452000,0.25,8.09e-05,324000,1.12,80,–,–,–,–,–
"18.156.8 (hIgG4) (antibody, V domains shown, human IgG4 constant region, kappa light chain) VH: QVQLVESGGGVVQPGRSLRLSCAASGFTFSSYGMHWVRQAPGKGLEWMAVIWYDGTNKYYADSVKGRFTISRDNSKNTVYLQMNSLRAEDTAVYYCAREKGLDWGQGTLVTVSS VL: not shown",0.028,0.0371,3.19e-05,861000,0.589,0.000146,248000,1.22,–,10.8,5.2,65.1,76.1,"IC50 (human PCSK9-mFc-biotin [9]): 0.97 nM; EC50, LDL-uptake assay in HepG2 [10]: 156 nM; EC50 (read off the curve) [11]: ~0.1 nM; Kd [12]: 0.0688 nM; koff [12]: 4.47e-05 s⁻¹; kon [12]: 649000 M⁻¹ s⁻¹; EC50 [13]: 0.034 nM"
